No end group written: not given here.
Legend:
[1] = system: SW480 tumor spheroids; test: Cell viability (MTS) of SW480 tumor spheroids cultured in hydrogels; format: cell-based, human; details: Day 7; hybrid hydrogels peptide_0.25%/G_3% (FIG. 12B)
Description: Human hepatocellular carcinoma HepG2 and human colorectal adenocarcinoma SW480 were cultivated in Dulbecco's Modified Eagle Medium (DMEM), supplemented by 10% Fetal Bovine Serum and 1% Penicillin, incubated at 37° C., 5% CO2. To prepare the tumor spheroids, 200 μL of cell suspension (3500 cells/mL) were seeded per well onto 96-well ultralow adhesion round bottom plates (Corning, U.S.A.). After which, the plate was centrifuged for 5 min at 1500 rpm) and incubated at 37° C. for 2-3 days for the cells to assemble into tumor spheroids. The IVK8/gelatin hydrogels were then prepared according to the steps in Section 2.2 and was used right after mixing the peptide and gelatin together. A positive control group was set up using the basement membrane product, Geltrex™ (Thermofisher, U.S.A.). Geltrex was kept in an ice bath during the experiment. The hydrogels were transferred to the tumor spheroids by first removing 150 μL of the spent medium. Subsequently, 70 μL of the hydrogels were added per well and the samples and incubated at 37° C. for 30 min before 100 μL were added to each well. The spent medium was replaced once every 2 to 3 days by removing 80 μL medium and adding 80 μL fresh medium. The growth of the tumor spheroids was monitored over time using DMil inverted light microscope (Leica, U.S.A.).
The viability of tumor spheroids cultured in the hydrogels for 7 days was determined by the CellTiter 96 AQueous One Solution Cell Proliferation Assay (MTS) (Promega, U.S.A.). Briefly, 80 μL of the spent medium was removed from each well containing the tumor spheroids. Next, 80 μL containing DMEM: MTS at 1:1 volume ratio was then added back into the wells. The plate was then incubated at 37° C. for 4.5 h. After which, the medium was pipetted several times to break up any aggregates that may be present and 100 μL of this solution was transferred to a fresh 96 well plate. The absorbance of the samples was measured at wavelength 490 nm using a microplate reader (Tecan, Switzerland).

[2] = Transparency and clarity of hydrogels (tube images, light microscopy); format: physicochemical; details: SW480 spheroids Day 7 (FIG. 13)
Description: IVK8 was dissolved in 300 mM sucrose sterile solution at a peptide concentration of 1.0% wt/vol. and stored at 4° C. until required. The peptide remains a solution at cold conditions (4° C. or ice bath). Gelatin was dissolved using sterile DI water at 60 mg/ml at 60° C. To form the hydrogel, gelatin was removed from the warm water bath and the cold IVK8 solution was added to the gelatin. DMEM was then added to this mixture at a volume ratio of 3:7 DMEM: mixture and was left to stand at 37° C. for 10 min for gelation to occur. The procedure for preparing IVK8 hydrogels was the same. Once formed, the gels remain stable at temperatures between 25 to 37° C. Similarly, the other peptide/gelatin hydrogels may be prepared by the same method described for IVK8, further detail and modifications of the general procedure may be found in WO2021015675. For example. IIK8, ILK8, IVK12, and IIK12 may be used instead of IVK8 to prepare the peptide/gelatin hydrogel. It may be observed from FIGS. 10A to 10 that shorter peptides result in clearer hydrogels. […] The high opacity of IVK12_0.25%/Gelatin_3% (FIG. 11D) and IIK12_0.25%/Gelatin_3% (FIG. 11E) may make them less suitable for 3D culture of tumor spheroid due to difficulties in observing the spheroids.

[3] = Gelation time by vial tilting method; format: physicochemical; details: 2% wt/vol.
Description: Vial tilting method was applied to determine the gelation time of the hydrogels. […] Rheology experiments were performed on a control-strain rheometer (ARES G2, TA instruments), as described previously. Briefly, a parallel plate measuring geometry (8 mm diameter, gap 1 mm) with oscillatory strain of 1% and the dynamic storage modulus (G′) and loss modulus (G″) were examined as a function of frequency from 1 to 100 rad/s. In addition, a flow sweep to study the viscosity changes as a function of shear rate of hydrogel samples.

[4] = Water retention of IVK8 peptide hydrogel; format: physicochemical; details: peptide hydrogel in water at high concentrations

| Sequence | cell viability of SW480 tumor spheroids compared to Geltrex [1] | opacity of peptide/gelatin hybrid hydrogel in spheroid culture [2] | gelation time ([3]; 37° C.) | gelation time ([3]; room temperature (23-24° C.)) [min] | water retention [4] [%] |
| --- | --- | --- | --- | --- | --- |
| IEIEIRIK (IEIEIRIK-NH2) [IIK8, self-assembling peptide] | no significant difference | least opaque |  |  |  |
| IELEIRLK (IELEIRLK-NH2) [ILK8, self-assembling peptide] | no significant difference | more opaque |  |  |  |
| IRIKIEIEIRIK (IRIKIEIEIRIK-NH2) [IIK12, self-assembling peptide] | significantly lower viability | more opaque |  |  |  |
| IEVEIRVK (IEVEIRVK-NH2) [IVK8, self-assembling peptide] | no significant difference | least opaque | less than 30 min | ≤ 60 | ~99 |
| IRVKIEVEIRVK (IRVKIEVEIRVK-NH2) [IVK12, self-assembling peptide] | significantly lower viability | most opaque |  |  |  |

Reference: patent US20240352093A1, “PEPTIDE AND GELATIN HYBRID HYDROGELS AS ECONOMICAL ALTERNATIVES TO COMMON BASEMENT-MEMBRANE MATRICES” (AGENCY FOR SCIENCE, TECHNOLOGY AND RESEARCH, priority 2021, published 2024)
